Measured values published in patent publication US20070036799A1.
Read-outs that look alike come from different tables or passages of the source.

Experiments:
C1q [1] = test: SPR (BIAcore): 2B6 antibody captured on soluble CD32B (2bLAvi) on a CM-5 chip, C1q injected in a dilution series
C1q [2] = test: SPR (BIAcore): 2B6 antibody captured on soluble CD32B (2bLAvi) on a CM-5 chip, C1q injected at 0.8-26 nM
[3] = target: soluble monomeric FcγRIIIA-linker-AVITAG (158V), biotinylated (human) (UniProt P08637); test: SPR
Target sequence in this assay (P08637 17-203 F176V limits assumed, form in doubt): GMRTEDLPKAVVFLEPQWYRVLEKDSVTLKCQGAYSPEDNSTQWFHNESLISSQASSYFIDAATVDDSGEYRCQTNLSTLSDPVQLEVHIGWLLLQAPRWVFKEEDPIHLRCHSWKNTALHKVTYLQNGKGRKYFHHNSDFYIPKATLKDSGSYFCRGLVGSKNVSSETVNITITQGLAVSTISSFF

[4] = target: soluble monomeric FcγRIIIA-linker-AVITAG (158V), biotinylated (human) (UniProt P08637); test: ELISA
[5] = target: FcγRIIB-Fc fusion protein (soluble dimeric FcγRIIB) (human) (UniProt P31994); test: ELISA
[6] = target: FcγRIIB-Fc fusion protein (soluble dimeric FcγRIIB) (human) (UniProt P31994); test: SPR
[7] = target: FcγRIIB-Fc fusion protein (soluble dimeric FcγRIIB) (human) (UniProt P31994); test: BIAcore, separate fits at two concentrations of FcγRIIB-Fc, average (Table 18 prints 0.085)
[8] = target: FcγRIIB-Fc fusion protein (soluble dimeric FcγRIIB) (human) (UniProt P31994); test: SPR; remark: listed apart in the source
monomeric human IgG = test: ELISA: plate coated with human IgG, receptor titrated, detection with DJ130c and anti-mouse peroxidase
[9] = target: yeast-displayed wild type CH1-CH3 Fc fusion (pYD-CH1) (human) [IgG part: P01857]; test: FACS titration on yeast, MFI, nonlinear regression

FcγRIIB-Fc fusion protein (soluble dimeric FcγRIIB) (human), sequence (P31994 43-217): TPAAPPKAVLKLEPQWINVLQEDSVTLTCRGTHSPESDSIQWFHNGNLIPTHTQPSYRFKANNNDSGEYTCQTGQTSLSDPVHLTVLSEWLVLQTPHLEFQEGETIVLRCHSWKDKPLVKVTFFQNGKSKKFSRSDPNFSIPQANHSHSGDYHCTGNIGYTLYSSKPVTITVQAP
C1q, sequence (P02745 23-245, chain 1 of 3): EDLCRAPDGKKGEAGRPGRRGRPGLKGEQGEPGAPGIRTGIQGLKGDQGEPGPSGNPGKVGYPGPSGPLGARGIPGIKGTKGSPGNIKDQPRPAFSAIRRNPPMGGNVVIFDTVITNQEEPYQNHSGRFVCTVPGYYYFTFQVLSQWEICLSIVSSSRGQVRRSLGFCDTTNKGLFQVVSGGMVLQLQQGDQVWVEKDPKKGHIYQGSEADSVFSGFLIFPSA
C1q, sequence (P02746 28-253, chain 2 of 3, further chain): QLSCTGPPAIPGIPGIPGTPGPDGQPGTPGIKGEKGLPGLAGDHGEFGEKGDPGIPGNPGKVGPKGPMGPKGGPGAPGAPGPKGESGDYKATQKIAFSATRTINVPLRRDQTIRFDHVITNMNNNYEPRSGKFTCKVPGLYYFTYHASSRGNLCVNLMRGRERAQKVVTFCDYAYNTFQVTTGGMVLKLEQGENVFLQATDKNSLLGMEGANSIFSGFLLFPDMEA
C1q, sequence (P02747 29-245, chain 3 of 3, further chain): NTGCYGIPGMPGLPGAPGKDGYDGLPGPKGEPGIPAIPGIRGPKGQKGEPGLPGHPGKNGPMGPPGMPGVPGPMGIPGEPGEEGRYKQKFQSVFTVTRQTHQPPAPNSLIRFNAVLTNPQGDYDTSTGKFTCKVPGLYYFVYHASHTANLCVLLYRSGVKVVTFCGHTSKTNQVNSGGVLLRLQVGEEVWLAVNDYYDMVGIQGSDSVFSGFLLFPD

“2B6 (lower panel of FIG. 36B, Fc region not labelled) (antibody)” was tested. Which Kd (C1q [1]) did it give?
The Kd was 7 nM.

And the koff (C1q [1])?
Its koff is 0.06 s⁻¹.

“2B6 (upper panel of FIG. 36B, Fc region not labelled) (antibody)” was tested. Which koff (C1q [2]) did it give?
The koff was 0.13 s⁻¹.

Which Kd [3] does the source give for “ch4-4-20 K392T, P396L (from UniProt P01857 1-330) (antibody)” here?
The Kd was 84 nM.

Which fold vs wt [4] does the source give for ch4-4-20 S415I, L251F (antibody) here?
Its fold vs wt is 0.5 x increase.

What about the fold vs wt [5] of the same substance?
Its fold vs wt is 0.75 x increase.

For “chimeric 4-4-20 anti-fluorescein antibody, wild type Fc”, which Kd [3] is on record?
The Kd was 319 nM.

What about the kon [3] of the same substance?
The kon was 600000 M⁻¹ s⁻¹.

And the Kd [6]?
The Kd was 94 nM.

What about the koff [6] of the same substance?
The koff was 0.094 s⁻¹.

What about the koff [7] of the same substance?
Its koff is 0.0847 s⁻¹.

And the Kd [8]?
The Kd was 61.4 nM.

And the koff [8]?
The koff was 0.085 s⁻¹.

What about the ELISA, OD [4] of the same substance?
Its ELISA, OD is 0.5 OD.

What about the ELISA, OD [5] of the same substance?
The ELISA, OD was 0.4 OD.

Which results are given for “soluble FcγRIIIA tetrameric complex (from UniProt P08637 1-203) (receptor)”?
EC50 (read off the curve) (monomeric human IgG): 1 µg/mL; Kd [9]: 6 nM
